From patent publication US5994504

Biological target: VDRE-BP (NWP nuclear VDRE binding protein, B95-8 nuclear extract) (UniProt Q9TTV2)
Test: competition
Details: 100-fold excess unlabeled competitor

Chain of VDRE-BP (NWP nuclear VDRE binding protein, B95-8 nuclear extract) (Q9TTV2 whole entry): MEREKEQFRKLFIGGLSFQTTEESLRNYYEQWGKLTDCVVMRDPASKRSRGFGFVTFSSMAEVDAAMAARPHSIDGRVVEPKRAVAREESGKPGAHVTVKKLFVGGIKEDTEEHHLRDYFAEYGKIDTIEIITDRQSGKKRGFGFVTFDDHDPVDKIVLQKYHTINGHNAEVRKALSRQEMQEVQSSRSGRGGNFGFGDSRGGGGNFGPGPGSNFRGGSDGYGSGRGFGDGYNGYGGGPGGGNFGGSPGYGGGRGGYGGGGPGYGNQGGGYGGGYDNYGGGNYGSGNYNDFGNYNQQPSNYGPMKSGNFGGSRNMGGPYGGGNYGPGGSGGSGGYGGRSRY

| Sequence | binding signal (% decrease of opVDRE band) |
| --- | --- |
| AGGTCA direct repeat, 3 bp spacer | 64 |
| GGTTCA direct repeat, 3 bp spacer | 61 |
